Where a SMILES comes first, the peptide text is derived from it. Bridges are numbered along the chain shown (N, C = ends).
How the values were obtained:
cancer patients = test system: cancer patients; parameters: method as in 3 sources, one per row (each row's own in cited_ref): ref Besse et al., 2013 ||| ref Cianfrocca et al., 2006 ||| ref Alday-Parejo et al., 2019; details: cited from earlier work
[1] = test system: angiogenesis, tumor growth and metastasis; parameters: method as in Almokadem and Belani, 2012; details: mice; ref Almokadem and Belani, 2012; cited from earlier work
α5β1 integrin [2] = target: T1, α5β1 integrin (Homo sapiens, UniProt P05556+P08648); assay: Surface plasmon resonance (Biacore T200); type: binding; details: biotinylated QS-13 (QKISRCQVCVKYSK-biot) captured on streptavidin CM5 chip; α5β1 integrin 0.12-130 nM; HBS pH 7.4, 3.4 mM EDTA, 0.05% P20, 25°C; Req fitted to 1:1 model
T1 construct: purchased R&D Systems 3230-A5-050
Protocol: All experiments were performed on a Biacore T200 instrument (GE Healthcare) at 25°C. Sensor surfaces and other Biacore consumables were purchased from GE Healthcare. Integrin α5β1 was from R&D Systems. The running buffer, HEPES buffered saline (HBS, composed of 0.01 M HEPES, pH 7.4, 0.15 M NaCl, 3.4 mM EDTA) was filtered through a 0.22 μm membrane and supplemented with 0.05% P20. Biotinylated peptides were captured on streptavidin-coated sensor chips. Briefly, CM5 sensor chips (GE Healthcare) were preconditioned by duplicate injections of 10 mM HCl, 50 mM NaOH, each for 10 s, and water for 20 s. Before covalent immobilization of streptavidin, traces of biotinylated products that could remain in the flow system were neutralized by injecting a streptavidin solution (0.1 mg/mL in running buffer) for 5 min through all flow cells ([Baltzinger et al., 2013]). Streptavidin was then stably immobilized using standard amine-coupling methods. The flow rate was 10 μL/min. […] The equilibrium response (Req) was recorded 5 s before the end of integrin injection. The KD was determined by fitting the equilibrium response versus the [integrin] curve to a simple 1:1 interaction model with the Biacore T200 evaluation software (GE Healthcare).

[3] = target: QS-13 peptide (…), minimal active sequence of Tetrastatin, the α4(IV) NC1 domain of collagen IV
[4] = target: QS-13 peptide (…), minimal active sequence of Tetrastatin, the α4(IV) NC1 domain of collagen IV; remark: listed apart in the source
cancer = details: ref Stoeltzing et al., 2003; Khalili et al., 2006; cited from earlier work
Text: Peptides also emerged as important therapeutic agents in angiogenesis-dependent diseases due to their low toxicity and high specificity ([Rosca et al., 2011]).

HUVEC adhesion on QS-13 = HUVEC adhesion on QS-13 coating with effector preincubation; type: cell-based, Human; details: peptide 20 μg/mL (legend Figure 5), 30 min preincubation; adhesion 60 min; n = 8, p < 0.001
Protocol: Cells were detached with 50 mM Hepes, 125 mM NaCl, 5 mM KCl, and 1 mM EDTA, washed three times with ECGM, pre-incubated for 30 min with effectors [mouse anti-human α5β1, catalog number 555614 from BD Pharmingen (10 μg/mL), irrelevant IgG ([…])]. 10,000 cells were seeded per well of a 96 well-plate previously coated with QS-13 and saturated with 1% BSA. After 60 min, cells were washed three times with HEPES buffered Balanced Salt Solution, fixed with 1.1% glutaraldehyde solution and stained with 1% crystal violet solution. Staining was extracted with 10% acetic acid and absorbance was read at 560 nm.
For in vitro experiments, results are expressed as the mean ± SD and statistical significance were determined using Student’s t-test. For in vivo experiments, the non-parametric Mann–Whitney test was performed.

α5β1 integrin [5] = target: T1, α5β1 integrin; assay: Solid phase assay, binding to coated integrin; details: coated 25 nM α5β1 integrin; biotinylated QS-13 90 min, room temperature, 1 mM MgCl2 and CaCl2; streptavidin-peroxidase/TMB 450 nm; n = 4, 2 experiments
Protocol: Wells of a 96-well plate were coated with 25 nM α5β1 integrin (3230-A5-050; R&D Systems, Lille, France) in amounts overnight at room temperature. The coating was then blocked with TBS containing 5% dry milk, 1 mM MgCl2, and 1 mM CaCl2 for 2 h at room temperature. After washing three times with washing buffer (0.1% dry milk, 1 mM MgCl2, and 1 mM CaCl2 in TBS), the plate was incubated for 90 min at room temperature with 100 μL per well of ranging from 1.25 to 20.10^–11 moles/well biotinylated-QS-13 diluted in washing buffer. After 3 washes, 100 μL of streptavidin-peroxidase diluted 1/20000 in washing buffer were added to each well and incubated for 15 min at room temperature. After 4 washes, 100 μL per well of tetramethylbenzidine (TMB), a peroxidase substrate, were added and incubated in the dark for 15 min. The enzymatic reaction was stopped by adding 50 μL per well of 0.5 M H2SO4. The intensity of the yellow coloration was measured at 450 nm with a Biochrom Asys UVM 340 microplate reader.

[6] = target: Biotinylated QS-13 (…-biot); assay: SPR; Biacore T200, 25°C; biotinylated QS-13 captured on a streptavidin-coated CM5 chip; α5β1 integrin injected at 0.12-130 nM, 300 s; HBS (0.01 M HEPES pH 7.4, 0.15 M NaCl, 3.4 mM EDTA) with 0.05% P20; reference surface with an irrelevant biotinylated peptide; equilibrium response fitted to a 1:1 model
α5β1 integrin [7] = target: T1, α5β1 integrin; parameters: method as in Sudhakar et al., 2003; details: ref Sudhakar et al., 2003; cited from earlier work
angiogenesis = details: ref Petitclerc et al., 2000; Wietecha et al., 2013; Monboisse et al., 2014; cited from earlier work
Text: Basement membrane are composed of type IV collagen in association with other minor collagens, such as collagens XVIII or XIX, laminins, nidogens, and perlecan. Type IV collagen is composed of three α(IV) chains, out of six possible [α1(IV)-α6(IV)]. Each α(IV) chain comprises a 7S N-terminal domain, a long interrupted triple helical domain and a globular C-terminal non-collagenous (NC1) domain ([Wu and Ge, 2019]).

αvβ3 integrin = details: tumor cell surface; ref Pasco et al., 2000; Brassart-Pasco et al., 2012; Lambert et al., 2018; cited from earlier work
Text: The NC1 domains of the different α(IV) collagen chains were reported to exert anti-tumor or anti-angiogenic effects ([Mundel and Kalluri, 2007]; [Monboisse et al., 2014]; [Brassart-Pasco et al., 2020]).

T1 sequence (P08648 42-894 limits assumed): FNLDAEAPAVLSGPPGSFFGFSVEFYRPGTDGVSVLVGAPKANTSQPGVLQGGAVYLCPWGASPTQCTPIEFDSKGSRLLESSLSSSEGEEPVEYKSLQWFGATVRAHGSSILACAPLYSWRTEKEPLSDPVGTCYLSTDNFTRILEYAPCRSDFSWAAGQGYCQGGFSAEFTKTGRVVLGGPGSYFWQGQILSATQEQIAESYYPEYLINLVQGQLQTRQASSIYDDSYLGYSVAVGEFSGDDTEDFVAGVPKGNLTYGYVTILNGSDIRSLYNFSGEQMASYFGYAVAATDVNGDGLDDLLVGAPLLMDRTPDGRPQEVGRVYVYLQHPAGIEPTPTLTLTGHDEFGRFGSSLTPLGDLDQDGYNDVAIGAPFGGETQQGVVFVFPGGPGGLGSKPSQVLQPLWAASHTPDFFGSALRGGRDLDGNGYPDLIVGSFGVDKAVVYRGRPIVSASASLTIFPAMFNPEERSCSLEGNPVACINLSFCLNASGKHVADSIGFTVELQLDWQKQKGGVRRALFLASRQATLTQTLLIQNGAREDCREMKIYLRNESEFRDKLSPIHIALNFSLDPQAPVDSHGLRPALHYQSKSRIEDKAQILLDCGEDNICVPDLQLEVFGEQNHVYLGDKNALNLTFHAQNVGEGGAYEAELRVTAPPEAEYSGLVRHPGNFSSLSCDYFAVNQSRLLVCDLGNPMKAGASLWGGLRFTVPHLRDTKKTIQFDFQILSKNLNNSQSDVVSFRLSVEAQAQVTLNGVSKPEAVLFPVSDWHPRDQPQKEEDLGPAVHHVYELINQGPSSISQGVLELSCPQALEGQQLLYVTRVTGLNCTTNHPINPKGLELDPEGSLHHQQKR
T1 sequence (P08648 895-995 partner limits assumed): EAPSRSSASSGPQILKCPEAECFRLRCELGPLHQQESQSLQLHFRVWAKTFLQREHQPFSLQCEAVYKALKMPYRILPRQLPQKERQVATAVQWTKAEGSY
T1 sequence (P05556 21-728 limits assumed): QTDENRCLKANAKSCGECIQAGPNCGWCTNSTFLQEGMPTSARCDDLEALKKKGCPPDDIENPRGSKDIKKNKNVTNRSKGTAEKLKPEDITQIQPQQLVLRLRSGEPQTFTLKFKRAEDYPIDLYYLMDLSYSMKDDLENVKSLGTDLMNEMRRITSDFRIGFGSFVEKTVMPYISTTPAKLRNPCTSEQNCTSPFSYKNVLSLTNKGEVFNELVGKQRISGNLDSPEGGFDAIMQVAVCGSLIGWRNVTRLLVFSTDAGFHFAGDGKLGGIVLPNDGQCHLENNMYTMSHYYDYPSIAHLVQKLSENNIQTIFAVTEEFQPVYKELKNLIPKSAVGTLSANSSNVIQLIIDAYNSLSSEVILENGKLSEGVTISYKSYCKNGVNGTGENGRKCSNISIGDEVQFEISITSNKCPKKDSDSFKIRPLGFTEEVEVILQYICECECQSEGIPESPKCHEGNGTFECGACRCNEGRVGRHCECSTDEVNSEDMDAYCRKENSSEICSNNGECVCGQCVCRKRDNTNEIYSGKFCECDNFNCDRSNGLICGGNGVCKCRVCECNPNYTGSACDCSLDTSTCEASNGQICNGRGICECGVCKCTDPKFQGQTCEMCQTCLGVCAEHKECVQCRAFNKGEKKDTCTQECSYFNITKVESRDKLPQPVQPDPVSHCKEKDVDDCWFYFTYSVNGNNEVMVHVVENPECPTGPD

M200/volociximab: anti-α5β1 integrin antibody
efficacy in advanced NSCLC (cancer patients; ref Besse et al., 2013): preliminary evidence of efficacy in advanced NSCLC
effect on angiogenesis, tumor growth and metastasis [1]: inhibit angiogenesis and to suppress tumor growth and metastasis in mice

CC[C@H](C)[C@H](NC(=O)[C@H](CCCCN)NC(=O)[C@@H](N)CCC(N)=O)C(=O)N[C@@H](CO)C(=O)N[C@@H](CCCNC(=N)N)C(=O)N[C@H]1CSSC[C@@H](C(=O)N[C@H](C(=O)N[C@@H](CCCCN)C(=O)N[C@@H](Cc2ccc(O)cc2)C(=O)N[C@@H](CO)C(=O)O)C(C)C)NC(=O)[C@H](C(C)C)NC(=O)[C@H](CCC(N)=O)NC1=O [QS-13, QKISRCQVCVKYS] (H-QKISRCQVCVKYS-OH; disulfide 6-9)
Kd (α5β1 integrin [2]): 20.3 ± 7.5 nM

α5β1 integrin of Human Umbilical Vein Endothelial Cells (HUVEC) (from UniProt P05556 21-798) (receptor)
HUVEC adhesion on coated QS-13 after pre-incubation of the cells with a blocking anti-α5β1 integrin antibody (10 μg/mL): inhibition of adhesion; an irrelevant IgG had no effect [3]: 71%
HUVEC adhesion on coated QS-13 after 30 min pre-incubation of the cells with RGDS peptide: change of adhesion [4]: -60%

Ac-PHSCN-NH(2) [ATN-161, reference compound]
preclinical anti-cancer activity (cancer): showed preclinical anti-cancer activities
clinical benefit (cancer patients; ref Cianfrocca et al., 2006): failed to provide therapeutic benefits

RGDS [RGDS peptide, RGDS peptide (Sigma)]
inhibition of HUVEC adhesion on QS-13 coating (peptide competition) (HUVEC adhesion on QS-13): about 60%

QKISRCQVCVKYSK-biot (disulfide) [biotinylated-QS-13]
binding to α5β1 integrin (α5β1 integrin [5]): binds to α5β1 integrin in a ligand concentration dependent manner

α5β1 integrin (recombinant, R&D Systems 3230-A5-050) (from UniProt P08648 42-1049; P05556 21-728) (receptor)
Kd [6]: 20.3 nM

B1: endostatin: 20-kDa C-terminal fragment of type XVIII collagen (protein, UniProt P39060 1572-1754, looked up)
Endostatin: HSHRDFQPVLHLVALNSPLSGGMRGIRGADFQCFQQARAVGLAGTFRAFLSSRLQDLYSIVRRADRAAVPIVNLKDELLFPSWEALFSGSEGPLKPGARIFSFDGKDVLRHPTWPQKSVWHGSDPNGRRLTESYCETWRTEAPSATGQASSLLGGRLLGQSAASCHHAYIVLCIENSFMTASK
modifications: Endostatin
notes: 20-kDa C-terminal fragment of type XVIII collagen
clinical results with chemotherapies and radiotherapies (cancer patients; combination, ref Alday-Parejo et al., 2019): the results were inconsistent
effect on α5β1 integrin (α5β1 integrin [7]): inhibit α5β1 integrin

B2: Tumstatin: the α3(IV) NC1 domain (protein, UniProt Q01955 1426-1670, looked up)
Tumstatin: PGLKGKRGDSGSPATWTTRGFVFTRHSQTTAIPSCPEGTVPLYSGFSFLFVQGNQRAHGQDLGTLGSCLQRFTTMPFLFCNVNDVCNFASRNDYSYWLSTPALMPMNMAPITGRALEPYISRCTVCEGPAIAIAVHSQTTDIPPCPHGWISLWKGFSFIMFTSAGSEGTGQALASPGSCLEEFRASPFLECHGRGTCNYYSNSYSFWLASLNPERMFRKPIPSTVKAGELEKIISRCQVCMKKRH
modifications: Tumstatin
notes: the α3(IV) NC1 domain
effect on angiogenesis (angiogenesis): inhibit angiogenesis
integrin mediating anti-tumor activity (αvβ3 integrin): mediated through binding to αvβ3 integrin

B3: Canstatin: the α2(IV) NC1 domain (protein, UniProt P08572 1486-1712, looked up)
Canstatin: VSIGYLLVKHSQTDQEPMCPVGMNKLWSGYSLLYFEGQEKAHNQDLGLAGSCLARFSTMPFLYCNPGDVCYYASRNDKSYWLSTTAPLPMMPVAEDEIKPYISRCSVCEAPAIAIAVHSQDVSIPHCPAGWRSLWIGYSFLMHTAAGDEGGGQSLVSPGSCLEDFRATPFIECNGGRGTCHYYANKYSFWLTTIPEQSFQGSPSADTLKAGLIRTHISRCQVCMKNL
modifications: Canstatin
notes: the α2(IV) NC1 domain
effect on angiogenesis (angiogenesis): inhibit angiogenesis

B4: Arresten: the α1(IV) NC1 domain (protein, UniProt P02462 1445-1669, looked up)
Arresten: GFLVTRHSQTIDDPQCPSGTKILYHGYSLLYVQGNERAHGQDLGTAGSCLRKFSTMPFLFCNINNVCNFASRNDYSYWLSTPEPMPMSMAPITGENIRPFISRCAVCEAPAMVMAVHSQTIQIPPCPSGWSSLWIGYSFVMHTSAGAEGSGQALASPGSCLEEFRSAPFIECHGRGTCNYYANAYSFWLATIERSEMFKKPTPSTLKAGELRTHVSRCQVCMRRT
modifications: Arresten
notes: the α1(IV) NC1 domain
effect on angiogenesis (angiogenesis): inhibit angiogenesis

From article PMC7431705, “Angiogenesis Inhibition by a Short 13 Amino Acid Peptide Sequence of Tetrastatin, the α4(IV) NC1 Domain of Collagen IV” (Frontiers in Cell and Developmental Biology, 2020)
